Measurements: article PMC5159555 (Nucleic Acids Research, 2016)
Read-outs that look alike come from different tables or passages of the source.

Experiments:
[1] = target: chicken FANCD2 (chicken, UniProt Q68Y81 1-1439); assay: SEC
[2] = target: T1, FANCI-FANCD2 (I-D) complex (chicken, UniProt B0I564 1-1338; Q68Y81 1-1439); assay: pull-down
[3] = target: T2, His6-tagged chicken FANCI (chicken, UniProt B0I564 1-1338); assay: pull-down
T2 sequence (looked up): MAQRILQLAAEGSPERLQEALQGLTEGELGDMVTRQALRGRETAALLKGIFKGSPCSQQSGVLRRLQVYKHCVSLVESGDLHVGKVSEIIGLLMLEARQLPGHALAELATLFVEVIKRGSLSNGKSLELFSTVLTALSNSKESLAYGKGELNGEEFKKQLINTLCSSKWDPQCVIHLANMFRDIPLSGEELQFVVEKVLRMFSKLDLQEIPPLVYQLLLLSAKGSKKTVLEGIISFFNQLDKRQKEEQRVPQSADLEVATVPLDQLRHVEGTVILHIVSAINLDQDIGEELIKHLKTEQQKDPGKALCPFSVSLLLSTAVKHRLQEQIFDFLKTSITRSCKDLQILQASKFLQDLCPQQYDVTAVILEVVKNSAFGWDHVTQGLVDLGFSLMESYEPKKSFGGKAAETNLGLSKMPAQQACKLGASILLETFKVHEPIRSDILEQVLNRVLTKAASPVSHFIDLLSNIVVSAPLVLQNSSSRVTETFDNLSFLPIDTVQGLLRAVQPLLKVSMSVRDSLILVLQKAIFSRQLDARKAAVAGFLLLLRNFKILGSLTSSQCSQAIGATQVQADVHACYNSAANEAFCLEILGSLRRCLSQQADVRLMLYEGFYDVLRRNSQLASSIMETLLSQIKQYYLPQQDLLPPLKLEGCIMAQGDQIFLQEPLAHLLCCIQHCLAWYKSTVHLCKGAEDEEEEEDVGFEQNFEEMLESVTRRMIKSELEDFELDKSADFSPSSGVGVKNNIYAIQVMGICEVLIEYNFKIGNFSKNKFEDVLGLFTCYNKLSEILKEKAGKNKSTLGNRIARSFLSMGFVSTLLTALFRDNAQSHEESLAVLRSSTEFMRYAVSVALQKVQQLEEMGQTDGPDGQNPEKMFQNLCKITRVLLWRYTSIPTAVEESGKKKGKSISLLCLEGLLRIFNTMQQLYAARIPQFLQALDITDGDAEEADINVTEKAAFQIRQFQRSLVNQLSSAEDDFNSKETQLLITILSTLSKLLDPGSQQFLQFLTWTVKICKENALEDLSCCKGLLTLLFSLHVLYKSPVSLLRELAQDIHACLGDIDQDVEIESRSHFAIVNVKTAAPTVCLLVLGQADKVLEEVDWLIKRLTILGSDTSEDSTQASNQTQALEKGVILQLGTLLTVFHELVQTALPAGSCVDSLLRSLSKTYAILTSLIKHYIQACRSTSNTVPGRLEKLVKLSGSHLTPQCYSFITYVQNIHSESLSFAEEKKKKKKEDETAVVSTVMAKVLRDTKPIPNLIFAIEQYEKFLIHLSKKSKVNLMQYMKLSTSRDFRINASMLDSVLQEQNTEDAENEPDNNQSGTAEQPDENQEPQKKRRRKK

[4] = target: His6-tagged chicken FANCD2 (chicken, UniProt Q68Y81 1-1439); assay: pull-down
[5] = target: His6-tagged FANCD2 complexed with FANCI (chicken, UniProt Q68Y81 1-1439; B0I564 1-1338); assay: pull-down
[6] = target: T1, FANCI-FANCD2 (I-D) complex; assay: pull-down; remark: listed apart in the source

T1 sequence (Q68Y81 whole entry, one chain of several): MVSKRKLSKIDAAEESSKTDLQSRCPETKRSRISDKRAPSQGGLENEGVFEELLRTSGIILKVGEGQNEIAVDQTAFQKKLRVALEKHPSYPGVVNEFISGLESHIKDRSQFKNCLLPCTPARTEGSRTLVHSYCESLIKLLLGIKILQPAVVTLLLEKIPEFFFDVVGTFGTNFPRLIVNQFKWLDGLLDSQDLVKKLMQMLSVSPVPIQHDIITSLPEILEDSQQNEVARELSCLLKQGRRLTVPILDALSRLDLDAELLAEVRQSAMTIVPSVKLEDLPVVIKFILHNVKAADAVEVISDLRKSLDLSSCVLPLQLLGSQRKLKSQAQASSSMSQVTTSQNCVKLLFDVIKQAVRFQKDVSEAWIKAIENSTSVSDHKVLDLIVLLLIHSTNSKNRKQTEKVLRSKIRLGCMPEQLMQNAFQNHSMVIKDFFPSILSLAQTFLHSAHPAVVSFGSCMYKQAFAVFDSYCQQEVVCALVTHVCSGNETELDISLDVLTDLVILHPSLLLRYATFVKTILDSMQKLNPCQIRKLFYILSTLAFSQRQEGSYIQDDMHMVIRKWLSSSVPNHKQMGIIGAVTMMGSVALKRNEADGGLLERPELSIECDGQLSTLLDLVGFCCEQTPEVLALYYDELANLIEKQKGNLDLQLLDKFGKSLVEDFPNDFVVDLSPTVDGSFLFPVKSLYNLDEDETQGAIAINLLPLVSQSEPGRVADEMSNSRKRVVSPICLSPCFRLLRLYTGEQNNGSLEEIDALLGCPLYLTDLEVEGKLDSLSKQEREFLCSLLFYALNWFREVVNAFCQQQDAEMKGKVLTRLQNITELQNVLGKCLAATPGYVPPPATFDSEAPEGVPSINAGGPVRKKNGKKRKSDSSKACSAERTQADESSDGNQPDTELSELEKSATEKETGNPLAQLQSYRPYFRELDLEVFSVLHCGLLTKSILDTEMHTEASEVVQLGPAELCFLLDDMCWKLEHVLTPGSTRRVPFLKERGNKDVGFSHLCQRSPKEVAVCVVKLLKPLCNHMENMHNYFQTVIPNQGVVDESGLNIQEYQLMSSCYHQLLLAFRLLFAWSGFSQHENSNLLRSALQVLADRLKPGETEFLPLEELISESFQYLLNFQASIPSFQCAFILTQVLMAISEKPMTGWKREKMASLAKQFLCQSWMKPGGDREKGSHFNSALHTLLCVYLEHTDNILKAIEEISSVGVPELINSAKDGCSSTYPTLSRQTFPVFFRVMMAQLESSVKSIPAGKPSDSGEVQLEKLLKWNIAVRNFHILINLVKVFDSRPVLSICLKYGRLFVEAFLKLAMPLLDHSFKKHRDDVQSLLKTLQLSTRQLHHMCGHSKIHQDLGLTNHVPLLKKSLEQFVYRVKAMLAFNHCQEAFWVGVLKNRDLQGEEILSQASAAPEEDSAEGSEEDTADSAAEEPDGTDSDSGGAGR
Chain of His6-tagged chicken FANCD2 (Q68Y81 whole entry): as the sequence (Q68Y81 whole entry, one chain of several) above
Chain of chicken FANCD2 (Q68Y81 whole entry): as the sequence (Q68Y81 whole entry, one chain of several) above
Chain of His6-tagged FANCD2 complexed with FANCI (Q68Y81 whole entry, one chain of several): as above

B1: chicken FANCI (natural protein, UniProt B0I564 1-1338, looked up)
chain: MAQRILQLAAEGSPERLQEALQGLTEGELGDMVTRQALRGRETAALLKGIFKGSPCSQQSGVLRRLQVYKHCVSLVESGDLHVGKVSEIIGLLMLEARQLPGHALAELATLFVEVIKRGSLSNGKSLELFSTVLTALSNSKESLAYGKGELNGEEFKKQLINTLCSSKWDPQCVIHLANMFRDIPLSGEELQFVVEKVLRMFSKLDLQEIPPLVYQLLLLSAKGSKKTVLEGIISFFNQLDKRQKEEQRVPQSADLEVATVPLDQLRHVEGTVILHIVSAINLDQDIGEELIKHLKTEQQKDPGKALCPFSVSLLLSTAVKHRLQEQIFDFLKTSITRSCKDLQILQASKFLQDLCPQQYDVTAVILEVVKNSAFGWDHVTQGLVDLGFSLMESYEPKKSFGGKAAETNLGLSKMPAQQACKLGASILLETFKVHEPIRSDILEQVLNRVLTKAASPVSHFIDLLSNIVVSAPLVLQNSSSRVTETFDNLSFLPIDTVQGLLRAVQPLLKVSMSVRDSLILVLQKAIFSRQLDARKAAVAGFLLLLRNFKILGSLTSSQCSQAIGATQVQADVHACYNSAANEAFCLEILGSLRRCLSQQADVRLMLYEGFYDVLRRNSQLASSIMETLLSQIKQYYLPQQDLLPPLKLEGCIMAQGDQIFLQEPLAHLLCCIQHCLAWYKSTVHLCKGAEDEEEEEDVGFEQNFEEMLESVTRRMIKSELEDFELDKSADFSPSSGVGVKNNIYAIQVMGICEVLIEYNFKIGNFSKNKFEDVLGLFTCYNKLSEILKEKAGKNKSTLGNRIARSFLSMGFVSTLLTALFRDNAQSHEESLAVLRSSTEFMRYAVSVALQKVQQLEEMGQTDGPDGQNPEKMFQNLCKITRVLLWRYTSIPTAVEESGKKKGKSISLLCLEGLLRIFNTMQQLYAARIPQFLQALDITDGDAEEADINVTEKAAFQIRQFQRSLVNQLSSAEDDFNSKETQLLITILSTLSKLLDPGSQQFLQFLTWTVKICKENALEDLSCCKGLLTLLFSLHVLYKSPVSLLRELAQDIHACLGDIDQDVEIESRSHFAIVNVKTAAPTVCLLVLGQADKVLEEVDWLIKRLTILGSDTSEDSTQASNQTQALEKGVILQLGTLLTVFHELVQTALPAGSCVDSLLRSLSKTYAILTSLIKHYIQACRSTSNTVPGRLEKLVKLSGSHLTPQCYSFITYVQNIHSESLSFAEEKKKKKKEDETAVVSTVMAKVLRDTKPIPNLIFAIEQYEKFLIHLSKKSKVNLMQYMKLSTSRDFRINASMLDSVLQEQNTEDAENEPDNNQSGTAEQPDENQEPQKKRRRKK
Q: Does B1 bind [1]?
A: Result: binds

B2: chicken RAD51 (natural protein, UniProt P37383 1-339, looked up)
chain: MAMQVQFEASTDTSAEEESFGPEPISRLEQCGINANDVKKLEEAGYHTVESVAHAPKKELLNIKGISEAKADKILAEAAKLVPMGFTTATEFHQRRSEIIQITTGSKELDKLLQGGIETGSITELFGEFRTGKTQLCHTLAVTCQLPIDRGGGEGKAMYIDTEGTFRPERLLAVAERYGLSGSDVLDNVAYARGFNTDHQTQLLYQASAMMAESRYALLIVDSATALYRTDYSGRGELSARQMHLARFLRMLLRLADEFGVAVVITNQVVAQVDGAAMFAADPKKPIGGNIIAHASTTRLYLRKGRGETRICKIYDSPCLPEAEAMFAINADGVGDAKE
Q: Does B2 bind [2]?
A: Result: binds

Q: Does B2 bind [3]?
A: Result: binds

Q: Does B2 bind [4]?
A: Result: binds

Q: Does B2 bind [5]?
A: Result: binds

B3: His6-tagged chicken RAD51 (natural protein, UniProt P37383 1-339, looked up)
chain: MAMQVQFEASTDTSAEEESFGPEPISRLEQCGINANDVKKLEEAGYHTVESVAHAPKKELLNIKGISEAKADKILAEAAKLVPMGFTTATEFHQRRSEIIQITTGSKELDKLLQGGIETGSITELFGEFRTGKTQLCHTLAVTCQLPIDRGGGEGKAMYIDTEGTFRPERLLAVAERYGLSGSDVLDNVAYARGFNTDHQTQLLYQASAMMAESRYALLIVDSATALYRTDYSGRGELSARQMHLARFLRMLLRLADEFGVAVVITNQVVAQVDGAAMFAADPKKPIGGNIIAHASTTRLYLRKGRGETRICKIYDSPCLPEAEAMFAINADGVGDAKE
Q: Does B3 bind [6]?
A: Result: binds

B4: His6-tagged chicken RAD51 F86E mutant (natural protein, UniProt P37383 1-339, looked up)
chain: MAMQVQFEASTDTSAEEESFGPEPISRLEQCGINANDVKKLEEAGYHTVESVAHAPKKELLNIKGISEAKADKILAEAAKLVPMGETTATEFHQRRSEIIQITTGSKELDKLLQGGIETGSITELFGEFRTGKTQLCHTLAVTCQLPIDRGGGEGKAMYIDTEGTFRPERLLAVAERYGLSGSDVLDNVAYARGFNTDHQTQLLYQASAMMAESRYALLIVDSATALYRTDYSGRGELSARQMHLARFLRMLLRLADEFGVAVVITNQVVAQVDGAAMFAADPKKPIGGNIIAHASTTRLYLRKGRGETRICKIYDSPCLPEAEAMFAINADGVGDAKE
Q: Does B4 bind [6]?
A: Result: binds
